Measurements published in patent publication US20220213227A1 (published 2022).

Assays:
human EGFR on cells [1] = biological target: T1, human EGFR on cells (human, UniProt P00533 25-1210); experiment: cell-based or functional assay
human EGFR on cells [2] = biological target: T1, human EGFR on cells; experiment: cell-based or functional assay; remark: listed apart in the source
[3] = biological target: T2, human CD3 gamma-epsilon-Fc fusion protein (human); experiment: SPR using the human CD3gamma-epsilon-Fc construct
T2 construct: also called CD3 gamma-epsilon-Fc protein; human CD3gamma-epsilon-Fc construct

human HER2 on cells = human HER2 on cells (human, UniProt P04626 23-1255); experiment: cell-based or functional assay
[4] = biological target: soluble extracellular region of cynomolgus monkey CD38 antigen fused to a 6-His-tag (cynomolgus monkey, UniProt Q5VAN0 45-301); experiment: SPR
[5] = biological target: T3, soluble extracellular region of human CD38 fused to a 6-His-tag (human, UniProt P28907 43-300); experiment: SPR, antibody captured on protein G chip, equilibrium response vs concentration
T3 construct: Extracellular region = UniProt P28907 residues 43-300, with a 6-His-tag at the C-terminal end; also called human CD38 protein; human CD38 antigen

human OX40 on cells = biological target: T4, human OX40 on cells (human, UniProt P43489 29-277); experiment: cell-based or functional assay
T4 sequence (looked up): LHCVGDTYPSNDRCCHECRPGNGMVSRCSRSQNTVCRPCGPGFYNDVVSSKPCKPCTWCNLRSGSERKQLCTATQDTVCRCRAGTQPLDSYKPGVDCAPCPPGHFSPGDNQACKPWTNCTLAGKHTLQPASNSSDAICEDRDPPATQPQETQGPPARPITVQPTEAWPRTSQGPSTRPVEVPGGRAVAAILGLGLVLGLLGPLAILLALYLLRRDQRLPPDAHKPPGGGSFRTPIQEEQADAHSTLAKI

B1: VECTIBIX (panitumumab)/hSP34 BEAT (bispecific antibody)
VH: QVQLQESGPGLVKPSETLSLTCTVSGGSVSSGDYYWTWIRQSPGKGLEWIGHIYYSGNTNYNPSLKSRLTISIDTSKTQFSLKLSSVTAADTAIYYCVRDRVTGAFDIWGQGTMVTVSS
VL: DIQMTQSPSSLSASVGDRVTITCQASQDISNYLNWYQQKPGKAPKLLIYDASNLETGVPSRFSGSGSGTDFTFTISSLQPEDIATYFCQHFDHLPLAFGGGTKVEIK
chain: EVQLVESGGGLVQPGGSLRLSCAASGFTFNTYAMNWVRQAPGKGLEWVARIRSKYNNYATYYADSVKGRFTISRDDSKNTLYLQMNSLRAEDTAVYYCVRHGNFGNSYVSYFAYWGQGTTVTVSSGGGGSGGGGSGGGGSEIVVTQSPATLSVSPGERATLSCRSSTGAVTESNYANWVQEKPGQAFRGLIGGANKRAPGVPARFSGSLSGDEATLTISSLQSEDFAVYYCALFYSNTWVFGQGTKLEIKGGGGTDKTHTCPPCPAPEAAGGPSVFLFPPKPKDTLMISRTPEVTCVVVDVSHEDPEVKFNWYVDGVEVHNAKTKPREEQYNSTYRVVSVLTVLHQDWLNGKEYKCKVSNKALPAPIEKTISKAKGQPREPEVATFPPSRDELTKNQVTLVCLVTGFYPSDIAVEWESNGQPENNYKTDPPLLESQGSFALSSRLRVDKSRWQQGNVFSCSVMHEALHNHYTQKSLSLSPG
Human EGFR on cells [1]
  EC50 of redirected T-cell lysis of A549 cells: 0.000613 nM
  EC50 of redirected T-cell lysis of HCC827 cells (value of the text, differs from the table): 0.000156 nM
Human EGFR on cells [2]
  EC50 (X)/EC50 (HCC827), HCT116 cells: 2.3 ratio
  EC50 (X)/EC50 (HCC827), MCF7 cells: 4300 ratio
  EC50 (X)/EC50 (HCC827), SW480 cells: 47.9 ratio
  EC50 of redirected T-cell lysis of HCC827 cells: 0.000146 nM
  EC50 of redirected T-cell lysis of HCT116 cells: 0.000341 nM
  EC50 of redirected T-cell lysis of MCF7 cells: 0.627 nM
  EC50 of redirected T-cell lysis of SW480 cells: 0.00699 nM

B2: BEAT HER2/CD3-1 antibody (bispecific antibody, human IgG1, kappa, L234A L235A)
heavy: EVQLVESGGGLVQPGGSLRLSCAASGYTFTRYTMHWVRQAPGKGLEWIGYINPSRGYTYYADSVKGRFTLSTDKSKNTAYLQMSSLRAEDTAVYYCARYYDDHYCLDYWGQGTLVTVSSASTKGPSVFPLAPSSKSTSGGTAALGCLVKDYFPEPVTVSWNSGALTSGVHTFPAVLQSSGLYSLSSVVTVPSSSLGTQTYICNVNHKPSNTKVDKKVEPKSCDKTHTCPPCPAPEAAGGPSVFLFPPKPKDTLMISRTPEVTCVVVDVSHEDPEVQFKWYVDGVEVHNAKTKPREEQYNSTFRVVSVLTVLHQDWLNGKEYKCKVSNKALPAPIEKTISKTKGQPREPAVYTLPPSREEMTKNQVKLVCLVTGFYPSDIAVEWESSGQPENNYYTTPPMLDSDGSFSLVSWLNVDKSRWQQGNIFSCSVMHEALHNRFTQKSLSLSPGK
light: DIQLTQSPSSLSASVGDRVTITCRASSSVSYVAWYQQKPGKAPKRWIYDTSKLYSGVPSRFSGSGSGTDYTLTISSLQPEDFATYYCQQWSSNPPTFGQGTKVEIKRTVAAPSVFIFPPSDEQLKSGTASVVCLLNNFYPREAKVQWKVDNALQSGNSQESVTEQDSKDSTYSLSSTLTLSKADYEKHKVYACEVTHQGLSSPVTKSFNRGEC
chain: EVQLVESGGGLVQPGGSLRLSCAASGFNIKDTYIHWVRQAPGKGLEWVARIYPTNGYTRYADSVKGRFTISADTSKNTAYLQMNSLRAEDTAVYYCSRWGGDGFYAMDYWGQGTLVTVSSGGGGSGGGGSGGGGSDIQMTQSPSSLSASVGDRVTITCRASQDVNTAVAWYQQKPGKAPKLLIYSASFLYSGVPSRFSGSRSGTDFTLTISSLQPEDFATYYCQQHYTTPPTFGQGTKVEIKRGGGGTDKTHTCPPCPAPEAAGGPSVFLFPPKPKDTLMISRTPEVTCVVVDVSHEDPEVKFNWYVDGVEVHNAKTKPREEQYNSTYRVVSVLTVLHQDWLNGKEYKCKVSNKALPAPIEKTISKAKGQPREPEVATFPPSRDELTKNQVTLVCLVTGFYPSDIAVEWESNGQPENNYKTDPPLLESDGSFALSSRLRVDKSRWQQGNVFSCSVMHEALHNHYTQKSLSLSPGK
notes: also called HER2/CD3-1 bispecific antibody
[3]
  binding result: binds
Human HER2 on cells
  EC50 of T cell redirected killing of BT-474 cells (RDL-MTS): 0.0006 nM
  EC50 of T cell redirected killing of JIMT-1 cells (RDL-FACS): 0.0014 nM
  EC50 of T cell redirected killing of JIMT-1 cells (RDL-MTS): 0.021 nM
  EC50 of T cell redirected killing of MDA-MB-231 cells (RDL-FACS): 0.08 nM
  EC50 of T cell redirected killing of MDA-MB-231 cells (RDL-MTS): ~0.2 nM

B3: human 767 antibody (antibody, human IgG1, kappa, V domains shown)
VH: QVQLVESGGGLVQPGGSLRLSCAASGFTFSSYWMSWVRQAPGKGLEWVANIKQDGSEKYYVDSVKGRFTISRDNAKNSLYLQMNSLRAEDTAVYYCAREGRTGYFDYWGQGTLVTVSS
VL: QSVLTQPPSASGTPGQRVTISCSGSTSNIGTNYVYWYQQLPGTAPKLLIYRNDQRPSGVPDRFSGSKSGTSASLAISGLRSEDEADYYCAAWDDSRSGVYAFGTGTKVTVLR
notes: Human IgG1; also called clone 767 IgG1 antibody
[4]
  Kd: ~1200 nM
[5]
  Kd: ~300 nM

B4: BEAT OX40/CD3 antibody (bispecific antibody, human IgG1, kappa, L234A L235A)
heavy: QVTLKESGPALVKPTQTLTLTCSFSGFSLSTSGMGVGWIRQPPGKALEWIAHIWWDDDKYYNTALKTRLTISKDTSKNQVVLTMTNMDPVDTATYYCARIDWDGFAYWGQGTLVTVSSASTKGPSVFPLAPSSKSTSGGTAALGCLVKDYFPEPVTVSWNSGALTSGVHTFPAVLQSSGLYSLSSVVTVPSSSLGTQTYICNVNHKPSNTKVDKKVEPKSCDKTHTCPPCPAPEAAGGPSVFLFPPKPKDTLMISRTPEVTCVVVDVSHEDPEVKFNWYVDGVEVHNAKTKPREEQYNSTYRVVSVLTVLHQDWLNGKEYKCKVSNKALPAPIEKTISKAKGQPREPAVYTLPPSRDELTKNQVKLVCLVTGFYPSDIAVEWESNGQPENNYYTTPPVLDSDGSFSLVSWLNVDKSRWQQGNVFSCSVMHEALHNHYTQKSLSLSPGK
light: EIVLTQSPATLSLSPGERATLSCRASSSVSYMHWYQQKPGQAPRPWIYATSNRATGIPARFSGSGSGTDYTLTISSLEPEDFAVYYCQQWSSNPWTFGQGTKVEIKRTVAAPSVFIFPPSDEQLKSGTASVVCLLNNFYPREAKVQWKVDNALQSGNSQESVTEQDSKDSTYSLSSTLTLSKADYEKHKVYACEVTHQGLSSPVTKSFNRGEC
chain: EVQLVESGGGLVQPGGSLRLSCAASGYTFTRYTMHWVRQAPGKGLEWIGYINPSRGYTYYADSVKGRFTLSTDKSKNTAYLQMSSLRAEDTAVYYCARYYDDHYCLDYWGQGTLVTVSSGGGGSGGGGSGGGGSGGGASDIQLTQSPSSLSASVGDRVTITCRASSSVSYVAWYQQKPGKAPKRWIYDTSKLYSGVPSRFSGSGSGTDYTLTISSLQPEDFATYYCQQWSSNPPTFGQGTKVEIKGGGGTDKTHTCPPCPAPEAAGGPSVFLFPPKPKDTLMISRTPEVTCVVVDVSHEDPEVQFKWYVDGVEVHNAKTKPREEQYNSTFRVVSVLTVLHQDWLNGKEYKCKVSNKALPAPIEKTISKTKGQPREPEVATFPPSREEMTKNQVTLVCLVTGFYPSDIAVEWESSGQPENNYNTDPPLLESDGSFALSSRLRVDKSRWQQGNIFSCSVMHEALHNRFTQKSLSLSPGK
Human OX40 on cells
  EC50 of T cell redirected killing of stable recombinant CHO[OX40] cells (RDL-MTS): 0.5 nM

B5: BEAT HER2/CD3-2 antibody (bispecific antibody, human IgG1, kappa, L234A L235A)
heavy: not shown
light: not shown
chain: EVQLVESGGGLVQPGGSLRLSCAASGYTFTRYTMHWVRQAPGKGLEWIGYINPSRGYTYYADSVKGRFTLSTDKSKNTAYLQMSSLRAEDTAVYYCARYYDDHYCLDYWGQGTLVTVSSGGGGSGGGGSGGGGSGGGASDIQLTQSPSSLSASVGDRVTITCRASSSVSYVAWYQQKPGKAPKRWIYDTSKLYSGVPSRFSGSGSGTDYTLTISSLQPEDFATYYCQQWSSNPPTFGQGTKVEIKGGGGTDKTHTCPPCPAPEAAGGPSVFLFPPKPKDTLMISRTPEVTCVVVDVSHEDPEVQFKWYVDGVEVHNAKTKPREEQYNSTFRVVSVLTVLHQDWLNGKEYKCKVSNKALPAPIEKTISKTKGQPREPEVATFPPSREEMTKNQVTLVCLVTGFYPSDIAVEWESSGQPENNYNTDPPLLESDGSFALSSRLRVDKSRWQQGNIFSCSVMHEALHNRFTQKSLSLSPGK
[3]
  binding result: binds
Human HER2 on cells
  EC50 of T cell redirected killing of BT-474 cells (RDL-MTS): 0.002 nM
  EC50 of T cell redirected killing of JIMT-1 cells (RDL-MTS): 0.016 nM
  EC50 of T cell redirected killing of MDA-MB-231 cells (RDL-MTS): ~0.2 nM
